Results on seven substances are retold here after article PMC10851439 (Biochemistry, 2024).

Where two headings read alike, the source gives them in different places.

Series [1] concerns the target T1, NTHi SapA (Haemophilus influenzae, UniProt Q4QL73).
T1 sequence (Q4QL73 32-546): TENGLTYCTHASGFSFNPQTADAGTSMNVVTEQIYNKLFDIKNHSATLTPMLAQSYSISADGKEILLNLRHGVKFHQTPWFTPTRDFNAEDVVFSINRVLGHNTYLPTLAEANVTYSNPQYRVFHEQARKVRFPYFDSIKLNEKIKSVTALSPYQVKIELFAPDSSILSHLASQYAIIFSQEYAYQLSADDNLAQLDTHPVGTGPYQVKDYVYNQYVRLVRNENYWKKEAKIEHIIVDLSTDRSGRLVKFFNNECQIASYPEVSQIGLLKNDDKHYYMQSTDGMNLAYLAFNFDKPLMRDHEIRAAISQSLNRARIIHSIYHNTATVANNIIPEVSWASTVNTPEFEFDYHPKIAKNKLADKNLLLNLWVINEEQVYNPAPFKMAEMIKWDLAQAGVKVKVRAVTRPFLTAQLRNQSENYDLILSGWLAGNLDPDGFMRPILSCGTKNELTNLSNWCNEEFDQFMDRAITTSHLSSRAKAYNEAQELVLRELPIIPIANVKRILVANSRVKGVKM
Description: SPR single-cycle kinetics, SapA over immobilized AMPs. As to conditions: LL-37 immobilized on SPR sensor chip, five increasing SapA concentrations. The class given is binding, nontypeable Haemophilus influenzae.

Series [2] concerns the target T1, NTHi SapA. Description: Spectral shift assay with fluorescently labeled SapA. The class given is binding, nontypeable Haemophilus influenzae. To be noted: peptide up to 100 or 500 μM, triplicate.
Series [3] is described as follows: Dynamic light scattering of LL-37. The class given is physicochemical. As to conditions: LL-37 at 1 mg/mL; data not shown.
For series [4] the following is noted: at the concentrations used for affinity experiments; cited from earlier work.
The test system of series [5] is NTHi strain 86–028NP (parent strain). Description: Bactericidal assay, parental strain. The class given is cell-based, nontypeable Haemophilus influenzae. As to conditions: 10 μg/mL AMP, 1 h.
For series [6], the system named is NTHi 86–028NP ΔsapA mutant. In words: Bactericidal assay, ΔsapA mutant. The class given is cell-based, nontypeable Haemophilus influenzae. To be noted: 10 μg/mL AMP, 1 h.
In series [7] the target is hNP-1_(loop) peptide (C2–C4 loop region of hNP-1 with C-terminal linker) (human). Description: SPR.
Series [8] addresses hBD-2_(loop) peptide (C2–C4 loop region of hBD-2 with C-terminal linker) (human). In words: SPR.
The target of series [9] is hBD-3_(loop) peptide (C2–C4 loop region of hBD-3 with C-terminal linker) (human). Description: SPR.
The target in series [10] is hNP-1_(loop) peptide (C2–C4 loop region of hNP-1 with C-terminal linker) (human). In words: SPR. The source holds these as a separate data set.
The target of series [11] is human β-defensin 3 (hBD-3) (human) (UniProt P81534). In words: SPR.
Series [12] addresses hBD-2_(loop) peptide (C2–C4 loop region of hBD-2 with C-terminal linker) (human). Description: SPR. The source holds these as a separate data set.
Series [13] concerns the target human α-defensin 1 (hNP-1) (human). Description: SPR.
Series [14] concerns the target human β-defensin 2 (hBD-2) (human) (UniProt O15263). In words: SPR.
In series [15] the target is hBD-3_(loop) peptide (C2–C4 loop region of hBD-3 with C-terminal linker) (human). Description: SPR. The source holds these as a separate data set.
The conditions of series [16]: cited from earlier work.

Sequence of human β-defensin 2 (hBD-2) (human) (O15263 24-64): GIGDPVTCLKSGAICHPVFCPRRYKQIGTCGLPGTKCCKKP
Sequence of human β-defensin 3 (hBD-3) (human) (P81534 23-67): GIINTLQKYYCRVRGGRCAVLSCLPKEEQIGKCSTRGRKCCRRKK

On to “LL-37: alpha helical peptide, the only member of the cathelicidin family found in humans”, for which the “SapA binding to LL-37 (SPR), result in words” value in the series with NTHi SapA [1] is given as “low affinity”. Besides, in the series with NTHi SapA [2], the “affinity to labeled SapA, result in words” value (from here on “affinity to labeled SapA”) is “low affinity”. Besides, the “aggregation by dynamic light scattering” value in series [3] was “aggregated at high concentrations”. Also, the “oligomeric state in solution” value in series [4] is given as “higher order oligomers”. Besides, the “survival of the parent strain at 10 μg/mL” value in series [5] is “neither the parent strain nor the ΔsapA mutant survived”. The “survival of the ΔsapA mutant at 10 μg/mL” value in [6] is recorded as “neither the parent strain nor the ΔsapA mutant survived”.

As for “NTHi SapA (residues 32–546), wild type (from UniProt Q4QL73 32-546) (natural protein)”, the dissociation constant (Kd) in series [7] is 3.8 nM; in series [10], 17.1 nM; in series [11] it was 10.5 nM; in [12], 9.5 nM; in series [13] it was 4 nM; in [14], 17.5 nM. Moreover, in series [15], the Kd is 17.2 nM. Further, the ka1 (two-state model, first step) in series [7] came to 880000 M⁻¹ s⁻¹; in series [8], 760000 M⁻¹ s⁻¹; in series [9], 280000 M⁻¹ s⁻¹; in series [11] it was 710000 M⁻¹ s⁻¹; in series [12], 750000 M⁻¹ s⁻¹; in series [13], 360000 M⁻¹ s⁻¹. In series [14], this substance showed a ka1 (two-state model, first step) of 630000 M⁻¹ s⁻¹. Also, the ka2 (two-state model, second step) in series [7] is 0.0064 s⁻¹; in series [8] it was 0.0095 s⁻¹; in series [9], 0.012 s⁻¹; in series [10], 0.0026 s⁻¹; in [11], 0.0059 s⁻¹; in series [12], 0.0024 s⁻¹. Further, the values for the ka2 (two-state model, second step) in [13], in series [14] and in series [15] were 0.0061 s⁻¹, 0.013 s⁻¹ and 0.004 s⁻¹, respectively. Further, the kd2 (two-state model, second step) in series [7] was 0.00045 s⁻¹; in [8], 0.00024 s⁻¹; in [9] it was 0.00012 s⁻¹; in series [10], 0.0019 s⁻¹; in [11], 0.0022 s⁻¹; in series [12], 0.0014 s⁻¹. The results for the kd2 (two-state model, second step) in series [13], in [14] and in [15] were 0.00069 s⁻¹, 0.0026 s⁻¹ and 0.003 s⁻¹, respectively. The kd1 (two-state model, first step) turned out to be 0.034 s⁻¹ in [8]; 0.028 s⁻¹ in [9]; 0.023 s⁻¹ in [10]; 0.019 s⁻¹ in series [11]; 0.019 s⁻¹ in series [12]; 0.012 s⁻¹ in series [13]. In addition, the kd1 (two-state model, first step) in [14] came to 0.047 s⁻¹; in series [15], 0.033 s⁻¹.

PR-39: the net charge entry in series [16] is on record as “+10”.

For the substance PSSEQ [hBD-3PSSEQ], the “affinity to labeled SapA” value at NTHi SapA [2] is listed as “completely abolished affinity”.

SSYGT [hNP-1SSYGT]: the “affinity to labeled SapA” value on NTHi SapA [2] is recorded as “completely abolished affinity”.

SSYKQ [hBD-2SSYKQ]: the “affinity to labeled SapA” value at NTHi SapA [2] was “completely abolished affinity”.

protamine: in series [16], the net charge entry was “+21”.
